Results: the supplement of paper PMC10126150
± gives the standard deviation of the averaged measurements.

Tested on: ATP
Assay: switch fluorescence ratio, 500 uM ATP over buffer (Cy3 cluster intensity, sum of 5 cycles each) (fold (ratio)); higher = stronger signal-on switching upon ATP binding; sequences stand for … in TCGTCGGCAGCGTCAGATGTGTATAAGAGACAGTTTTTTTTTTTTTTTTTTTTTTTTT…TC
Conditions: aptamer strand: ATP DNA aptamer (quencher-CACCTGGGGGAGTATTGCGGAGGAAGG + anchor), 100 nM annealed; ATP concentration: 500 uM
Outline: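 The quencher-labelled ATP aptamer, at 100 nM, was annealed to Cy3-labelled switching-strand clusters on a modified Illumina MiSeq flow-cell. The clusters were imaged in selection buffer, then after 15 min with 500 uM ATP at 22 °C, and this buffer/ATP cycle ran five times with NaOH stripping and re-annealing between runs. Per-cluster fluorescence ratios, summed target-cycle over summed buffer-cycle Cy3 intensity, were averaged per switch-domain sequence. Clusters outside 100-1000 RFU were excluded.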
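Further: ATP exposure 15 min at 22 °C before imaging.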

Row | Sequence | switch fluorescence ratio
1 | AAAGCTGGGT | 1 ± 0.026
2 | TACCTACTCG | 1.18 ± 0.12
3 | GGTCGGTATT | 1.08 ± 0.12
4 | TGAAGGGGCT | 0.9833 ± 0.0052
5 | AAACAGGGTA | 0.9906 ± 0.0079
6 | CGGAGACTTG | 0.973 ± 0.068
7 | TCGAGATATG | 0.978 ± 0.09
8 | TCGTGGGTGC | 1.01 ± 0.023
9 | GGGGGTGCAG | 0.975 ± 0.011
10 | ACGGTAATTC | 1.184 ± 0.011
11 | ACATTTATCT | 1.02 ± 0.02
12 | CAGTGTCTGC | 0.9726 ± 0.0016
13 | GTTGGTTACC | 1.01 ± 0.041
14 | AATATTGATG | 1.02 ± 0.044
15 | CCTGAGTCGT | 1.09 ± 0.017
16 | AGTCAAAAAA | 1.17 ± 0.3
17 | CATTTAGCAC | 1.131 ± 0.0021
18 | CGGGGCCATG | 1.02 ± 0.068
19 | TAATTTACCT | 1.275 ± 0.0075
20 | GATAGTCATG | 0.985 ± 0.015
21 | GGGGCTAGTT | 0.963 ± 0.02
22 | GGACGATCGG | 0.9765 ± 0.0046
23 | AGGGAATTTG | 1.014 ± 0.0021
24 | TTCCGTATTT | 1.15 ± 0.012
25 | TGTCAATTGG | 0.984 ± 0.021

Row | Sequence | switch fluorescence ratio
26 | GTTGCTTTTT | 0.998 ± 0.035
27 | TAGGACTAGA | 0.9597 ± 0.0039
28 | GCTGGGAAGG | 0.978 ± 0.013
29 | CCGTTTTGCG | 1.02 ± 0.027
30 | TAACTCGAAC | 1.04 ± 0.023
31 | GCTTAATTAG | 1.02 ± 0.017
32 | GCATTTTTTT | 0.996 ± 0.032
33 | GGGTAAGATG | 0.992 ± 0.016
34 | TGGGGGGGAC | 1.04 ± 0.069
35 | TTTGAGTCAG | 0.994 ± 0.035
36 | TATATTTCGG | 0.995 ± 0.044
37 | ACTCTGCCGG | 1.2 ± 0.048
38 | GGATTAAATC | 1.001 ± 0.0086
39 | GTGTCGGATC | 1.06 ± 0.023
40 | AGGTGCAGTG | 1.015 ± 0.0042
41 | GGCTATATTT | 0.991 ± 0.017
42 | GAAACCGGAG | 1.567 ± 0.015
43 | CTTGTCGTTC | 1.01 ± 0.026
44 | AGAAGAAATC | 1.016 ± 0.008
45 | AGGGGGAACT | 1.03 ± 0.033
46 | TTGCGTATGG | 1.01 ± 0.021
47 | TCAAGGGCGG | 0.988 ± 0.044
48 | GCTAGAGGGG | 1.02 ± 0.048
49 | GTATGGGGGA | 1.01 ± 0.031
50 | GATTTTTGGT | 0.995 ± 0.028

Row | Sequence | switch fluorescence ratio
51 | TTTGGAGTTG | 0.987 ± 0.064
52 | AATTTGGTTT | 1.02 ± 0.021
53 | CGCTGATTTG | 1.002 ± 0.0074
54 | ATAATAGGGA | 0.982 ± 0.014
55 | CGTCGGAGTG | 1.01 ± 0.022
56 | TGCGAAGGGT | 0.9856 ± 0.0046
57 | ATAATAATTT | 1.02 ± 0.011
58 | GTGTCGGGAA | 0.9838 ± 0.0023
59 | TTGGGTGTAG | 1.04 ± 0.025
60 | GGCTAATTGG | 0.99 ± 0.026
61 | TAAGCGGGTA | 1.02 ± 0.016
62 | GAATTATCAT | 0.968 ± 0.015
63 | TAGAAGACAG | 0.996 ± 0.025
64 | GGGTGTGGTA | 0.9967 ± 0.0096
65 | GTAAGGGATA | 0.988 ± 0.031
66 | AATAAACAGG | 1.08 ± 0.041
67 | GGGAGCATCG | 0.9709 ± 0.0055
68 | TTTTGATATT | 1.01 ± 0.035
69 | CAGTAATTTT | 0.999 ± 0.013
70 | AGTATCTCTT | 1.0161 ± 4.4e-05
71 | GGCGGTATAA | 1.01 ± 0.025
72 | GTAATAAAAT | 0.971 ± 0.034
73 | CCTGGGGGGG | 1.03 ± 0.05
74 | GGGTTCATGG | 1.01 ± 0.047
75 | TTCCAGATTC | 0.964 ± 0.013

Row | Sequence | switch fluorescence ratio
76 | CCGTCGGGGT | 1.09 ± 0.025
77 | GATTGGGGGT | 0.982 ± 0.03
78 | TTAATGTTGG | 0.962 ± 0.046
79 | CGACTAGGAA | 1.04 ± 0.023
80 | TAACGGGTG | 1.08 ± 0.018
81 | GCGATTAAAT | 1.018 ± 0.0019
82 | ACGTTGCAGC | 1.047 ± 0.006
83 | AATGGGAAGA | 0.9987 ± 0.0043
84 | TCGGGTGTGA | 1.029 ± 0.0015
85 | AGGCTTAAGA | 0.976 ± 0.031
86 | TTAAGCTTAG | 1.01 ± 0.015
87 | GGAAGATGTG | 1.02 ± 0.016
88 | GCGAAGGCGT | 0.9709 ± 0.0033
89 | CAAATTTTTT | 1.01 ± 0.02
90 | ATAGTTGGA | 0.953 ± 0.019
91 | AATAAAGACG | 0.952 ± 0.025
92 | TTGATCTGCT | 0.987 ± 0.023
93 | TTTTAAATTG | 0.964 ± 0.023
94 | TAGGGCCAAC | 1.016 ± 0.0092
95 | AATGGGGTCA | 0.991 ± 0.024
96 | AGTTTTCATG | 1.02 ± 0.017
97 | AAAAGGGTTG | 0.99 ± 0.033
98 | TTACAAGGTT | 1.02 ± 0.013
99 | TCGTAGGAGG | 1.07 ± 0.024
100 | GGGAGAGTGG | 0.9868 ± 0.0015

Row | Sequence | switch fluorescence ratio
101 | TCTGTGATCT | 1.01 ± 0.021
102 | GCTTATCGGT | 0.996 ± 0.018
103 | GGGTTCAAAG | 0.9818 ± 0.006
104 | TATGGTTTTG | 1.01 ± 0.017
105 | TTTCATTCTT | 1 ± 0.033
106 | CCGCGGGTCG | 1.046 ± 0.0013
107 | TCGTGAAGCG | 1.04 ± 0.025
108 | ACGGGGCATT | 1 ± 0.043
109 | CCGAATCGGA | 1.02 ± 0.054
110 | TTGGCTGGTG | 1.03 ± 0.04
111 | AAGCTAAATG | 1.01 ± 0.05
112 | GAGCTGTATG | 1.03 ± 0.014
113 | GCACGAGGAA | 1.043 ± 0.0063
114 | TGCTGTGGGA | 0.9689 ± 0.006
115 | GTTGTTAGAG | 0.989 ± 0.021
116 | AATTTCTGGG | 1.06 ± 0.058
117 | CATTTGAGGT | 1 ± 0.027
118 | TTGGCAGTG | 0.993 ± 0.019
119 | GGGGGGGTAA | 0.993 ± 0.027
120 | TTGATGTCCC | 1 ± 0.027
121 | TTCAGGTTCT | 1 ± 0.04
122 | AAGTTGAGTG | 0.9472 ± 0.0088
123 | AATTTTTAGT | 0.981 ± 0.024
124 | ATTGCGTTTG | 1.01 ± 0.026
125 | GTGTTTAAGA | 1.01 ± 0.026

Row | Sequence | switch fluorescence ratio
126 | CTTTGGTTGA | 0.995 ± 0.031
127 | TTGGCCCGGC | 1.52 ± 0.72
128 | TTAGTGTATC | 0.982 ± 0.059
129 | GAAGTGATAT | 1.206 ± 0.0013
130 | GAGTGAGGGT | 0.987 ± 0.031
131 | TTCGGGGCTT | 0.983 ± 0.035
132 | GATGGGGTGT | 1.03 ± 0.027
133 | CCCCAAAAGT | 1.12 ± 0.14
134 | TATTCGAAAT | 1.02 ± 0.028
135 | TGGGGACTGG | 1.04 ± 0.088
136 | CCTGTGCCCG | 1.01 ± 0.041
137 | TGACCGCGGA | 1.11 ± 0.039
138 | GGATAAACGG | 1.03 ± 0.082
139 | CACGAGAACT | 1.1 ± 0.024
140 | CGTGAAAATC | 0.9987 ± 0.0075
141 | TACGAATTTT | 1.02 ± 0.012
142 | TATTAACATC | 1.04 ± 0.014
143 | TGCACAAGAT | 1.02 ± 0.011
144 | TGTTGAGCAT | 1.09 ± 0.089
145 | TTATCGAATG | 0.965 ± 0.065
146 | TGGGCGGGAG | 0.993 ± 0.039
147 | CGATGTCGCG | 0.989 ± 0.028
148 | CGTGTGAGAC | 1.02 ± 0.014
149 | ACGCTGGGGA | 0.993 ± 0.016
150 | TTTCAAAGAT | 1.22 ± 0.41

Row | Sequence | switch fluorescence ratio
151 | TAGGGGTGAT | 1.02 ± 0.047
152 | GCCTTAGGGT | 1.015 ± 0.0029
153 | AATAATGGGG | 0.981 ± 0.049
154 | ATGATCAATT | 1.02 ± 0.049
155 | CTGTTGACTG | 0.983 ± 0.041
156 | GGTATTTTGG | 0.953 ± 0.035
157 | CTGACATGAT | 1.07 ± 0.04
158 | TGGGGTGAGG | 1 ± 0.035
159 | TGGCATCTTT | 1.02 ± 0.018
160 | ATGGTTTTAT | 1.01 ± 0.045
161 | GCATCAAGTG | 0.988 ± 0.034
162 | CTTAGGTGAC | 1.034 ± 0.004
163 | GGTGTGGCGC | 0.955 ± 0.0063
164 | TCGGCATGGG | 1.11 ± 0.11
165 | CGGGGCCTGG | 0.959 ± 0.021
166 | TGTAGGGTGC | 1.07 ± 0.044
167 | TGTTGCATAG | 1.01 ± 0.047
168 | TGTTGTATAT | 1 ± 0.023
169 | TGGATGTATG | 0.99 ± 0.04
170 | GGTGGAGGGA | 0.987 ± 0.031
171 | TAGTAAGTTT | 0.998 ± 0.012
172 | CGCGGTTTGT | 0.988 ± 0.017
173 | TTGGTATAGT | 0.9999 ± 0.0047
174 | GACGGCTTGG | 1.02 ± 0.025
175 | TAGCGGGTTC | 1.055 ± 0.0048

Row | Sequence | switch fluorescence ratio
176 | TTTATTAGGG | 0.975 ± 0.021
177 | GCATAATGGG | 1.008 ± 0.0057
178 | CGATTATTTG | 0.9786 ± 0.0053
179 | TTATTGAAAA | 1 ± 0.032
180 | CATCTCCGGT | 1.13 ± 0.0087
181 | GTTGTGGGTT | 0.976 ± 0.022
182 | GTTTACTTTT | 0.986 ± 0.013
183 | AAGGGAATGA | 0.987 ± 0.016
184 | AAGGGTGATG | 1 ± 0.049
185 | GAGCGTGTGA | 1.02 ± 0.019
186 | GGTGGGGCGA | 1.01 ± 0.041
187 | ATCTTCCAGG | 1.614 ± 0.0089
188 | ATACGTGGTG | 1.09 ± 0.086
189 | GGGCAGTTCG | 1.02 ± 0.027
190 | GGGGCCAGGG | 1.04 ± 0.054
191 | TTTTCGGGCA | 0.99223 ± 4.3e-05
192 | TAAATTATTC | 1.04 ± 0.037
193 | GACGCCGGTC | 1.25 ± 0.27
194 | GAATTTAGCG | 1.01 ± 0.015
195 | GGTGGTAGTT | 1.012 ± 0.003
196 | ACATTCATCG | 1.06 ± 0.034
197 | GGATTGCGG | 1.008 ± 0.01
198 | AAAATAGATT | 1.032 ± 0.0078
199 | GCAGTTGGGA | 1.02 ± 0.011
200 | CGTTACGCTG | 0.979 ± 0.026
